For the assay, the target named is HDAC1-FLAG (UniProt Q13547 1-482). The experiment in a line: AlphaScreen or HTRF. (Alpha assays give light when donor and acceptor beads are brought close together.)
HDAC1-FLAG, sequence (Q13547 whole entry): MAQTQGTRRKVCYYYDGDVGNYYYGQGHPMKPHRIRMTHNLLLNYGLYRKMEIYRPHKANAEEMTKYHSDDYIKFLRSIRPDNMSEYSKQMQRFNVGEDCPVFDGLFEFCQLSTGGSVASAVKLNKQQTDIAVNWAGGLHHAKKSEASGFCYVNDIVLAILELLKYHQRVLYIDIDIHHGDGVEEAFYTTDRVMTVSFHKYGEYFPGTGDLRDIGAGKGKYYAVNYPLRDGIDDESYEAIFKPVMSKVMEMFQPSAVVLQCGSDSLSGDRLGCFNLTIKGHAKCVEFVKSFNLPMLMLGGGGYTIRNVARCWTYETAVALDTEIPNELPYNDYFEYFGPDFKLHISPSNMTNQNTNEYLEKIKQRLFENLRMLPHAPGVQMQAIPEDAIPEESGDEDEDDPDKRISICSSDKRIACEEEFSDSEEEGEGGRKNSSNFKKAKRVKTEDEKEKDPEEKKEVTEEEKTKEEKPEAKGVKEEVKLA

B1: GST-Rb 380-785 (domain or fragment)
chain: NTIQQLMMILNSASDQPSENLISYFNNCTVNPKESILKRVKDIGYIFKEKFAKAVGQGCVEIGSQRYKLGVRLYYRVMESMLKSEEERLSIQNFSKLLNDNIFHMSLLACALEVVMATYSRSTSQNLDSGTDLSFPWILNVLNLKAFDFYKVIESFIKAEGNLTREMIKHLERCEHRIMESLAWLSDSPLFDLIKQSKDREGPTDHLESACPLNLPLQNNHTAADMYLSPVRSPKKKGSTTRVNSTANAETQATSAFQTQKPLKSTSLSLFYKKVYRLAYLRLNTLCERLLSEHPELEHIIWTLFQHTLQNEYELMRDRHLDQIMMCSMYGICKVKNIDLKFKIIVTAYKDLPHAVQETFKRVLIKEEEYDSIIVFYNSVFMQRLKTNILQYASTRPPTLSPIPHI
With B1, the binding result is given as “binds”.

The values above are taken from publication doi:10.1101/2024.05.10.593562 (bioRxiv, 2024).
